Source: the supplement of paper PMC10266784

B1: library; numbered along this chain (parent)
chain: MAAAAAAAAEQQSSNGPVKKSMREKAVERRSVNKEHNSNFKAGYIPIDEDRLHKTGLRGRKGNLAICVIILLFILAVINLIITLVIWAVIRIGPNGCDSMEFHESGLLRFKQVSDMGVIHPLYKSTVGGRRNENLVITGNNQPIVFQQGTTKLSVENNKTSITSDIGMQFFDPRTQNILFSTDYETHEFHLPSGVKSLNVQKASTERITSNATSDLNIKVDGRAIVRGNEGVFIMGKTIEFHMGGNMELKAENSIILNGSVMVSTTRLPSSSSGDQLGSGDWVRYKLCMCADGTLFKVQVTSQNMGCQISDNPCGNTH

Variants of: B1
Assay: SGCB cell-surface expression functional score (HA stain, bin4 vs bin1, normalised to synonymous) (log10 ratio); higher = more cell-surface SGCB (functional)
In short: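 Sorting and sequencing yield the functional score, defined as the log ratio of a variant's highest-bin frequency to its lowest-bin frequency, with the median taken over codons and replicate transductions. The libraries, codon-saturation sets of HA-tagged, YFP-fused human beta-sarcoglycan, went into HEK293 cells stably carrying alpha-, gamma- and delta-sarcoglycan by duplicate lentiviral transduction at MOI <0.1. Cells were stained on ice with Alexa Fluor 647 anti-HA, fixed and split into four 5% intensity bins, and synonymous variants were scaled per section to mean 0, SD 0.5.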

Row | Variant | SGCB cell-surface expression functional score (log10)
1 | D172F | -0.3
2 | D172M | 0.46
3 | D172S | 0.68
4 | D172Q | -0.19
5 | D172T | 0.25
6 | D172L | 0.77
7 | D172K | -0.36
8 | D172Y | -0.12
9 | D172P | -1.12
10 | D172G | 0.2
11 | D172I | -1.04
12 | D172E | 0.42
13 | N177H | 0.09
14 | N177S | 0.02
15 | N177A | 0.49
16 | N177F | -0.18
17 | N177L | 0.29
18 | N177D | 0.12
19 | N177Q | 1.3
20 | N177R | 0.42
21 | N177Y | 0.11

Row | Variant | SGCB cell-surface expression functional score (log10)
22 | N177C | 0.09
23 | N177I | 0.12
24 | N177T | 0.39
25 | N177K | -0.45
26 | N177E | 0.19
27 | N177M | -0.24
28 | N177G | 0.05
29 | N177V | 0.4
30 | N177P | -1.5
31 | N177W | -0.44
32 | F171K | 0.12
33 | F171Q | 0.8
34 | F171M | 1.04
35 | F171R | 0.04
36 | F171N | -0.08
37 | F171I | 0.86
38 | F171V | -0.07
39 | F171S | -0.28
40 | F171P | -0.43
41 | F171A | -0.81
42 | F171E | -1.22

Row | Variant | SGCB cell-surface expression functional score (log10)
43 | F171L | 0.15
44 | F171T | 0.72
45 | F171C | -1.66
46 | F171Y | 0.03
47 | Q176K | -0.32
48 | Q176N | 0.38
49 | Q176R | 0.16
50 | Q176Y | -0.78
51 | Q176W | -0.21
52 | Q176M | -0.21
53 | Q176D | 0.07
54 | Q176F | -0.66
55 | Q176I | -0.61
56 | Q176V | -0.31
57 | Q176L | -0.17
58 | Q176S | -0.24
59 | Q176P | -0.31
60 | Q176H | -0.38
61 | Q176E | 0.27
62 | Q176T | -0.34
63 | Q176C | 1.06

Row | Variant | SGCB cell-surface expression functional score (log10)
64 | Q176G | 0.46
65 | Q176A | 0.1
66 | P173D | -0.84
67 | P173C | -0.22
68 | P173Y | -0.68
69 | P173L | -0.21
70 | P173E | 0
71 | P173F | -0.34
72 | P173R | -0.47
73 | P173Q | 0.62
74 | P173N | -0.77
75 | P173G | -0.17
76 | P173H | 0.19
77 | P173I | -0.68
78 | P173T | -0.17
79 | P173K | -0.93
80 | P173S | 0.5
81 | P173V | 0.67
82 | P173A | -0.38
83 | P173W | -1.02
84 | P173M | 0
